The target of experiment [1] is T1, murine CD8a (mouse, UniProt P01731 28-247).
T1 construct: whole, on cells; also called mCD8a; mCD8
The experiment is described as follows: flow cytometry on murine splenocytes, gated on CD8+, detected with anti-His Tag antibody. Background: Flow cytometry measures light scatter and fluorescence of single cells or particles in a stream.

The target of experiment [2] is T2, Ad5FDgT fiber (Human Adenovirus 5 fiber with DogTag inserted at the HI loop domain of the fiber knob) (Human Adenovirus 5).
T2 chain: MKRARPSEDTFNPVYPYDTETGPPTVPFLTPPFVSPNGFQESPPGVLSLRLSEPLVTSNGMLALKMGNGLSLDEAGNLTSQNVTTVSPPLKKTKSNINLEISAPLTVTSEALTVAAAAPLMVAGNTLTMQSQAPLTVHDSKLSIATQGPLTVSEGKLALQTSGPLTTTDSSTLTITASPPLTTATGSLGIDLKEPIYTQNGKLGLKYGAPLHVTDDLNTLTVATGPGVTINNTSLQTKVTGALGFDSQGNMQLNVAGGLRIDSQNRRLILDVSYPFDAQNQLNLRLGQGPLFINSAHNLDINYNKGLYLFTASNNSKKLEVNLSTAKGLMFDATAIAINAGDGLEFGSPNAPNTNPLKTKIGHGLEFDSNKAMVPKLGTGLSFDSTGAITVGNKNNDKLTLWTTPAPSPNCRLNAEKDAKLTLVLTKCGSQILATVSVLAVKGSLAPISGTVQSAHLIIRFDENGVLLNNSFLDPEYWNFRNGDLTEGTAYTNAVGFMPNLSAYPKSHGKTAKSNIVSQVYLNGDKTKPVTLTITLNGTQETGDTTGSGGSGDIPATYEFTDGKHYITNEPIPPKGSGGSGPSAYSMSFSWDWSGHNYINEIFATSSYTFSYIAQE
As to the kind of experiment: covalent DogCatcher/DogTag conjugation to the virus capsid.

Experiment [3] concerns the target T3, murine CD19 (mouse, UniProt P25918 19-547).
T3 sequence: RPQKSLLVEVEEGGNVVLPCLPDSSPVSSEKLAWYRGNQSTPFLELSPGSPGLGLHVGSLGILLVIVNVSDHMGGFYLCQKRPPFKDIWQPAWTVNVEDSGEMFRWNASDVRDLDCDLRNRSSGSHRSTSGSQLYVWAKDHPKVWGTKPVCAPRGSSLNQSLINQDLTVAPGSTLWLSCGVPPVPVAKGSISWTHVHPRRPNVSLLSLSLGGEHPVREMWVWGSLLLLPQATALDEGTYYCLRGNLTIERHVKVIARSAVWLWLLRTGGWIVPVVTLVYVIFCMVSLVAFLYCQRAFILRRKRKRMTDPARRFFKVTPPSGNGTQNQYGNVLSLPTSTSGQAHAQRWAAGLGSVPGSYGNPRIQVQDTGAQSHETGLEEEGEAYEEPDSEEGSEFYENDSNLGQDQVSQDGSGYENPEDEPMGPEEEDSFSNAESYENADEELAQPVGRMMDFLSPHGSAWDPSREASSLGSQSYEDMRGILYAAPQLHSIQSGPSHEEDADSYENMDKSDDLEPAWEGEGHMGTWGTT
The experiment is described as follows: cell-based or functional assay.

In experiment [4] the target is T2, Ad5FDgT fiber (Human Adenovirus 5 fiber …). As to the kind of experiment: SDS-PAGE gel shift of the fiber band after co-incubation at room temperature. (In general: Mobility shift assays separate free from complexed probe on a gel.)
The target is the same in experiment [5]. The experiment is described as follows: SDS-PAGE (complete shift of the fiber-DogTag band) and western blot against the fiber tail, purified Ad-Ab complexes. Background: Immunoblotting shows a protein as a band on a membrane.
Experiment [6] has as its target T1, murine CD8a. The experiment is described as follows: cell-based or functional assay.

T1 sequence (P01731 28-247): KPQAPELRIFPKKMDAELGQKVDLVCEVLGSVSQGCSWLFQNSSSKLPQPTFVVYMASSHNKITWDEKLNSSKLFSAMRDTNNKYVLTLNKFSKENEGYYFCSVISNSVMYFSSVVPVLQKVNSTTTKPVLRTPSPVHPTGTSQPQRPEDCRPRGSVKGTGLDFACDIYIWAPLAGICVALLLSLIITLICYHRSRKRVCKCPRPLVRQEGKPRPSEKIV

B1: 2.43DgC (2.43 scFv fused to DogCatcher; IGHV1-46 signal sequence-2.43 scFv-(G4S)3-DgC-6xHis) (scFv)
scFv: EVQLVESGGGLVQPGRSLKLSCAASGFTFSNYYMAWVRQAPTKGLEWVAYINTGGGTTYYRDSVKGRFTISRDDAKSTLYLQMDSLRSEDTATYYCTTAIGYYFDYWGQGVMVTVSSGGGGSGGGGSGGGGSDIQLTQSPASLSASLGETVSIECLASEDIYSYLAWYQQKPGKSPQVLIYAANRLQDGVPSRFSGSGSGTQYSLKISGMQPEDEGDYFCLQGSKFPYTFGAGTKLELKGGGGSGGGGSGGGGSAMKLGEIEFIKVDKTDKKPLRGAVFSLQKQHPDYPDIYGAIDQNGTYQDVRTGEDGKLTFTNLSDGKYRLIENSEPPGYKPVQNKPIVSFRIVDGEVRDVTSIVPQGSSGSHHHHHH
notes: also called 2.43 scFv-DogCatcher
Take B1: the binding result in experiment [1] is recorded as “binds”.

B2: 1D3DgC (1D3 anti-murine CD19 scFv fused to DogCatcher; IL-2 signal sequence-1D3 scFv-(G4S)3-DgC-6xHis) (scFv)
scFv: DIQMTQSPASLSTSLGETVTIQCQASEDIYSGLAWYQQKPGKSPQLLIYGASDLQDGVPSRFSGSGSGTQYSLKITSMQTEDEGVYFCQQGLTYPRTFGGGTKLELKGGGGSGGGGSGGGGSEVQLQQSGAELVRPGTSVKLSCKVSGDTITFYYMHFVKQRPGQGLEWIGRIDPEDESTKYSEKFKNKATLTADTSSNTAYLKLSSLTSEDTATYFCIYGGYYFDYWGQGVMVTVSSGGGGSGGGGSGGGGSAMKLGEIEFIKVDKTDKKPLRGAVFSLQKQHPDYPDIYGAIDQNGTYQDVRTGEDGKLTFTNLSDGKYRLIENSEPPGYKPVQNKPIVSFRIVDGEVRDVTSIVPQGSSGSHHHHHH
notes: also called lD3DgC; 1D3 scFv-DogCatcher
As for B2, the binding result in experiment [2] is listed as “binds”. For the same molecule, in experiment [3], the “gene expression in B cells in vivo, against the parent vector” value is approximately 2 fold.

B3: FMC63 scFv-DogCatcher fusion (anti-human CD19; IL-2 signal sequence-FMC63 scFv-(G4S)3-DgC-6xHis) (scFv)
scFv: DIQMTQTTSSLSASLGDRVTISCRASQDISKYLNWYQQKPDGTVKLLIYHTSRLHSGVPSRFSGSGSGTDYSLTISNLEQEDIATYFCQQGNTLPYTFGGGTKLEITGGGGSGGGGSGGGGSEVKLQESGPGLVAPSQSLSVTCTVSGVSLPDYGVSWIRQPPRKGLEWLGVIWGSETTYYNSALKSRLTIIKDNSKSQVFLKMNSLQTDDTAIYYCAKHYYYGGSYAMDYWGQGTSVTVSSGGGGSGGGGSGGGGSAMKLGEIEFIKVDKTDKKPLRGAVFSLQKQHPDYPDIYGAIDQNGTYQDVRTGEDGKLTFTNLSDGKYRLIENSEPPGYKPVQNKPIVSFRIVDGEVRDVTSIVPQGSSGSHHHHHH
notes: also called FMC163DgC (plasmid name as printed)
Turning to B3, the binding result in experiment [2] is given as “binds”.

B4: 18B12DgC (18B12 anti-murine CD20 scFv fused to DogCatcher; IL-2 signal sequence-18B12 scFV-(G4S)3-DgC-6xHis) (scFv)
scFv: QVQLQQPGAELVRPGTSVKLSCKASGYTFTSYWMHWIKQRPGQGLEWIGVIDPSDNYTKYNQKFKGKATLTVDTSSSTAYMQLSSLTSEDSAVYFCAREGYYGSSPWFAYWGQGTLVTVSSGGGGSGGGGSGGGGSQIVMSQSPAILSASPGEKVTMTCRARSSVSYIHWYQQKPGSSPKPWIYATSNLASGVPGRFSGSGSGTSYSLTITRVEAEDAATYYCQQWSSKPPTFGGGTKLEIKGGGGSGGGGSGGGGSAMKLGEIEFIKVDKTDKKPLRGAVFSLQKQHPDYPDIYGAIDQNGTYQDVRTGEDGKLTFTNLSDGKYRLIENSEPPGYKPVQNKPIVSFRIVDGEVRDVTSIVPQGSSGSHHHHHH
notes: also called 18B12 scFv-DogCatcher
B4: the binding result in experiment [2] is listed as “binds”.

B5: DogCatcher (bacterially produced, 6xHis-TEV-DogCatcher) (other)
chain: MSYYHHHHHHDYDIPTTENLYFQGAMKLGEIEFIKVDKTDKKPLRGAVFSLQKQHPDYPDIYGAIDQNGTYQDVRTGEDGKLTFTNLSDGKYRLIENSEPPGYKPVQNKPIVSFRIVDGEVRDVTSIVPQ
notes: also called DgC; pDEST14-DogCatcher product
In the case of B5, the binding result in experiment [4] is given as “binds”.

B6: YTS169DgC (YTS169 anti-murine CD8a scFv fused to DogCatcher; IGHV1-46 signal sequence-YTS169 scFv-(G4S)3-DgC-6xHis) (scFv)
scFv: EVKLQESGGGLVQPGRSLKLSCAASGFNFNDYWMGWVRQAPGKGLEWIGEINKDSSTINYTPSLKDKFTISRDNAQNTLYLQMSKLGSEDTAIYYCARARGMMVLIIPHYFDYWGQGVMVTVSSGGGGSGGGGSGGGGSDIVLTQSPAMAMSPGERITISCRASESVSTRMHWYQQKPGQQPKLLIYGASNLESGVPARFSGSGSGTDFTLTIDPVEANDTATYFCQQSWYDPWTFGGGTKLELKGGGGSGGGGSGGGGSAMKLGEIEFIKVDKTDKKPLRGAVFSLQKQHPDYPDIYGAIDQNGTYQDVRTGEDGKLTFTNLSDGKYRLIENSEPPGYKPVQNKPIVSFRIVDGEVRDVTSIVPQGSSGSHHHHHH
notes: also called YTS169 scFv-DogCatcher; anti-mCD8 YTS169
With B6, the binding result in experiment [5] is on record as “binds”. Further, the “gene expression in CD8a+ T cells in vivo” value in experiment [6] was approximately 2 fold.
